Measurements published in the supplement of paper PMC10724198.
± gives the standard deviation of the averaged measurements.

system: Saccharomyces cerevisiae; experiment: protein stability index of tFT-peptide fusion (C-terminal peptide) (PSI (0-1 scale)); higher = more stable (slower turnover); settings: genetic background: wild type; temperature: 30 C
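Further: PSI is a weighted mean of sequencing reads over stability bins, variants kept only with over 10 reads, mCherry proximal and sfGFP distal, peptide attached via GGGS linker.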

Sequence | protein stability index
LFSDAWVLTDWW | 0.753 ± 0.044
LFSDLCRVAWSL | 0.615 ± 0.021
LFSPTFPTIYYA | 0.759 ± 0.059
LFSSFFSAAFAS | 0.677 ± 0.064
LFTGPPPSPPPP | 0.699 ± 0.034
LFTLSGAPLALP | 0.729 ± 0.015
LFVCVFRPWLGG | 0.766 ± 0.09
LFVGSSPPPSPP | 0.643 ± 0.046
LGACAGSGFKGV | 0.713 ± 0.033
LGCCVFGFVFPS | 0.672 ± 0.047
LGCDDWIDWSRG | 0.694 ± 0.054
LGFFGGGRWAGG | 0.717 ± 0.025
LGGGAGKRVCEG | 0.685 ± 0.014
LGGGGGGGGRLR | 0.618 ± 0.0091
LGGGGGLTAAGV | 0.743 ± 0.016
LGGGVLDVRGQL | 0.711 ± 0.011
LGGHLFPLGPRR | 0.664 ± 0.007
LGGVKATGLGQL | 0.686 ± 0.04
LGGVLVGDWVGI | 0.7125 ± 0.0042
LGGVRWNPGCRG | 0.661 ± 0.047
LGLGIWDCFCVL | 0.685 ± 0.018
LGLGPKNLSYSE | 0.676 ± 0.043
LGLLVLARFSPL | 0.7076 ± 0.0053
LGRGGVAWGAWW | 0.836 ± 0.11
LGSIKCKLSSGI | 0.666 ± 0.052
LGSLSPRLPSLR | 0.672 ± 0.091

Sequence | protein stability index
LGTGKSGLCVWE | 0.665 ± 0.012
LGVCVGFRLLWV | 0.579 ± 0.026
LGVFNRMKHSKH | 0.6702 ± 0.0029
LGVSYAPLPFLS | 0.65 ± 0.03
LGWGRWFWGVRG | 0.653 ± 0.026
LGYSYHGVASRG | 0.698 ± 0.013
LHCKRPTPLTDS | 0.657 ± 0.019
LHGHFIRLIRIG | 0.477 ± 0.054
LHLGHAGQACPA | 0.6277 ± 0.0022
LHLPLPPLQLSL | 0.697 ± 0.0072
LHPGPPASPPPL | 0.7127 ± 0.0053
LHPRCVLPHFRV | 0.627 ± 0.032
LICLTIHNEGSK | 0.583 ± 0.017
LIDKPNNGVWIS | 0.587 ± 0.042
LIDLLRQVNVLR | 0.649 ± 0.0096
LIENVGDLETSR | 0.665 ± 0.059
LIGALSDCGFLG | 0.683 ± 0.031
LIHSSCSCPWCD | 0.666 ± 0.011
LIILKNKRKNKI | 0.704 ± 0.04
LILFQYFYLPMT | 0.517 ± 0.044
LIPALPPPLPPP | 0.673 ± 0.0056
LIPCFSPLPSPF | 0.721 ± 0.018
LIPFAFVHPVFL | 0.62 ± 0.048
LIQKQTGKKKKP | 0.7279 ± 0.0051
LIRGVVVGLDGD | 0.685 ± 0.021
LIRIHPNGPKFM | 0.708 ± 0.083

Sequence | protein stability index
LIRYVPFSYVLV | 0.599 ± 0.007
LISLGTYLINGF | 0.6441 ± 0.0051
LISLSHLSANQM | 0.665 ± 0.012
LISNEGASRWDL | 0.625 ± 0.018
LISRQFPNHGWT | 0.675 ± 0.044
LITDSQWLSSLS | 0.731 ± 0.02
LITGRGFGFVVV | 0.674 ± 0.024
LIWRQEDGGPMT | 0.747 ± 0.01
LKGSVGGVCHTC | 0.709 ± 0.032
LKKIEPRKNDKI | 0.719 ± 0.025
LKKKSHRIKRSI | 0.58471 ± 0.00035
LKMRIYEKNGKE | 0.669 ± 0.049
LLCIPFPTRSLI | 0.803 ± 0.28
LLEGSFFCGNSS | 0.726 ± 0.037
LLFLLGTLYHPY | 0.635 ± 0.11
LLFTFFFLLLFS | 0.527 ± 0.23
LLFTFLPFRTVR | 0.709 ± 0.044
LLGASIIGQFYL | 0.758 ± 0.011
LLGDPGDFFPAS | 0.713 ± 0.028
LLGLWSFLIPPS | 0.677 ± 0.0023
LLGRIASCKIWL | 0.657 ± 0.019
LLHFSSPPLLPV | 0.634 ± 0.055
LLHVPIVFPRLI | 0.62 ± 0.043
LLHWGRWSRGRR | 0.694 ± 0.071
LLIHLKDFYCFV | 0.855 ± 0.019
LLLFPSSFIFFY | 0.629 ± 0.055

Sequence | protein stability index
LLLGSFFNKPTT | 0.678 ± 0.035
LLLLFWSGSCGC | 0.648 ± 0.013
LLLPIIPRKLDL | 0.673 ± 0.022
LLLPPLPPLSLS | 0.7135 ± 0.0058
LLLPPLSSSPPP | 0.7111 ± 0.0032
LLLSPAFFSCFL | 0.638 ± 0.095
LLMPRTKEEYDN | 0.601 ± 0.24
LLNLQEEADLPS | 0.724 ± 0.035
LLPALPLPLSLT | 0.64 ± 0.013
LLPLLYKWLGLR | 0.681 ± 0.025
LLPLPPLLRLPL | 0.5803 ± 0.001
LLPLPPPPLFLP | 0.705 ± 0.011
LLPPFPPSSPAF | 0.708 ± 0.036
LLPPLPLSPSAP | 0.685 ± 0.096
LLPPPPPPTLYP | 0.699 ± 0.016
LLPPPPSPPTPS | 0.686 ± 0.035
LLPSPSPASSPS | 0.74 ± 0.1
LLPSSPRTFPLL | 0.6731 ± 0.0008
LLPVFFPCFPLP | 0.696 ± 0.069
LLRFVGVRVRGA | 0.646 ± 0.094
LLRLMSPTPFTP | 0.703 ± 0.037
LLRLPPPSPRYH | 0.782 ± 0.019
LLRPLRRLDVSW | 0.632 ± 0.0065
LLRPPARPPHPR | 0.746 ± 0.008
LLRVYNQNGERN | 0.734 ± 0.044
LLRWEPNYTENL | 0.796 ± 0.028

Sequence | protein stability index
LLRYAPSALPLP | 0.6683 ± 0.0031
LLSAPFRSFFTL | 0.5548 ± 0.0046
LLSAVVDHTHLQ | 0.664 ± 0.07
LLSCVRSHPDAP | 0.702 ± 0.073
LLSLATPHPSAL | 0.714 ± 0.045
LLSLMCYCWFGV | 0.5088 ± 0.0011
LLSPDAALGRLF | 0.692 ± 0.025
LLSPFLPPPLFV | 0.563 ± 0.019
LLSPPPTPFPLP | 0.666 ± 0.061
LLSRCAGLMWSF | 0.679 ± 0.0098
LLSRQEWMTGRS | 0.673 ± 0.031
LLTWENWVVPRL | 0.738 ± 0.053
LLVLFRWSGIPG | 0.552 ± 0.034
LLVLGHVCAANF | 0.601 ± 0.0094
LLVMRGMRGCGT | 0.681 ± 0.056
LLVMRRHRFLRL | 0.624 ± 0.051
LLVNLNINYFKR | 0.689 ± 0.018
LLWCPLRSIGLS | 0.696 ± 0.044
LLWPSPAISLPT | 0.722 ± 0.021
LMAGPRLCSPLR | 0.634 ± 0.033
LMCGPARSPLTT | 0.6701 ± 0.00098
LMFPLPLRSFPF | 0.6931 ± 0.0014
LNHQSSVHLNTP | 0.732 ± 0.034
LNTTKTFCSPCL | 0.692 ± 0.081
LPACVVVRYCRF | 0.637 ± 0.12
LPAPLHPPPSQP | 0.638 ± 0.014

Sequence | protein stability index
LPAPPAPLTFPG | 0.687 ± 0.021
LPASLPPPPPPY | 0.756 ± 0.058
LPCGPRGLTRPP | 0.661 ± 0.0091
LPDSYAVVPPTS | 0.642 ± 0.068
LPDVFLSSFFCL | 0.709 ± 0.027
LPFCLPAPLPPP | 0.708 ± 0.04
LPFFFPRLFSPP | 0.691 ± 0.061
LPFPSPLPSPPP | 0.702 ± 0.035
LPGSVLLFPSFS | 0.747 ± 0.035
LPHLFPSTPPAS | 0.723 ± 0.025
LPHSYFCPTFFF | 0.675 ± 0.019
LPIKRLPLPTVP | 0.682 ± 0.015
LPIKRLWKGLHG | 0.652 ± 0.1
LPLGSTVVSGES | 0.632 ± 0.034
LPLHHYAHKFDL | 0.746 ± 0.1
LPLIISTNYTPD | 0.723 ± 0.11
LPLPLPWHSCPP | 0.721 ± 0.029
LPLPVPPPPLPS | 0.654 ± 0.034
LPLRYFSFPDPF | 0.6949 ± 0.0035
LPPAPAPPQCST | 0.675 ± 0.052
LPPCAPPLPPSS | 0.706 ± 0.067
LPPFFPLLSPPF | 0.664 ± 0.031
LPPFPRPPPPSP | 0.719 ± 0.029
LPPGIPLRSSPP | 0.683 ± 0.022
LPPLLPPFHPPR | 0.701 ± 0.06
LPPLPPRSPPPP | 0.731 ± 0.02

Sequence | protein stability index
LPPLRVIANIRG | 0.659 ± 0.019
LPPPAPPSSFPP | 0.661 ± 0.056
LPPPIPPPLSLA | 0.703 ± 0.013
LPPPLPPSLRLR | 0.602 ± 0.083
LPPPPLTTLLHT | 0.604 ± 0.043
LPPPPRPLPRSL | 0.732 ± 0.018
LPPPRPTRSPTH | 0.617 ± 0.034
LPPRIPRPDVSF | 0.72 ± 0.0075
LPPRPPESLHLP | 0.724 ± 0.03
LPPRPPRRPESP | 0.663 ± 0.055
LPPSLPTHLSHP | 0.7629 ± 0.0041
LPPSPPPFPPLP | 0.642 ± 0.011
LPPTHPPPPPAL | 0.7 ± 0.045
LPPVLPLLPSPP | 0.692 ± 0.044
LPQVKLGRIYTY | 0.683 ± 0.032
LPQVYSGIMRFV | 0.6243 ± 0.0036
LPRFAPPNPALP | 0.658 ± 0.071
LPRGLRAISCVE | 0.569 ± 0.024
LPRPPPPPPPPP | 0.759 ± 0.042
LPRSLSGCGAGV | 0.711 ± 0.015
LPRSSGSTTPYP | 0.688 ± 0.025
LPSKSTVALGPL | 0.633 ± 0.046
LPSPSATPPRPP | 0.634 ± 0.034
LPSPSPPPPLLL | 0.677 ± 0.015
LPSPSPPPPLLP | 0.743 ± 0.022
LPSPSSLPAPPV | 0.677 ± 0.031

Sequence | protein stability index
LPSRSLPSPGPP | 0.714 ± 0.027
LPSSSPHPADPS | 0.643 ± 0.08
LPVCVRLSLCDV | 0.6144 ± 0.004
LPVLCSRVFVSS | 0.517 ± 0.023
LPVLGSFRLIWL | 0.626 ± 0.016
LPVPPPHPPCPL | 0.6497 ± 0.0036
LQPRLLSIVPYN | 0.635 ± 0.03
LQSSSCLLYPSS | 0.681 ± 0.026
LRAHHHSAKFQY | 0.6608 ± 0.0056
LRARMACPLIIS | 0.663 ± 0.025
LRASVFPVLDMC | 0.718 ± 0.075
LRCSVKQNLGIV | 0.655 ± 0.045
LRDTAPEPGPAP | 0.6895 ± 0.0014
LREETKREDDKQ | 0.814 ± 0.061
LRENKGPAPPLL | 0.651 ± 0.0087
LRFDGKASHSST | 0.6813 ± 0.0014
LRFRGKSQNDYD | 0.67 ± 0.058
LRFTYSFIPPSV | 0.631 ± 0.00064
LRGGWVESCGGW | 0.669 ± 0.027
LRHRAYPKLFPA | 0.708 ± 0.011
